One molecule from publication PMC2692298 (Science signaling, 2008) can be followed below.

This experiment has as its target stromal cell derived factor-1 (SDF-1, also known as CXCL12), wild type (UniProt P48061 22-93).

B1: CXCR4 N-terminal peptide p38-sY3 (sulfotyrosine at positions 7, 12 and 21) (peptide)
peptide: GSMEGISIYTSDNYTEEMGSGDYDSMKEPAFREENANFNK
modifications: sulfotyrosine at positions 7, 12 and 21
Take B1: binding was characterised by a dissociation constant (Kd) of 200 ± 200 nM and the “fold tighter binding than the unsulfated peptide p38” value was around 20 fold.
